Measured values reported in the supplement of paper PMC9112550, “Optimization of the antimicrobial peptide Bac7 by deep mutational scanning” (BMC Biology, 2022).

test system: Escherichia coli TOP10; assay: shrunken log2 fold change of peptide-encoding DNA abundance (4.5 h post-induction vs induction); higher = less antimicrobial activity (less host growth inhibition); details: time post-induction: 4.5 h; library: site-saturation at positions 5, 18, 19, 20
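Note: peptides expressed intracellularly from a pBAD plasmid library in pooled LB shake-flask culture, induced with 0.3% L-arabinose, DNA abundance read by NGS, three biological replicates, DESeq2 with apeglm shrinkage.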

Sequence | shrunken log2 fold change
RRIRYRPPRLPRPRPRPPGWPRP | 0.167
RRIRPRPPRLPRPRPRPMIMPRP | -0.0291
RRIRDRPPRLPRPRPRPVYLPRP | -0.219
RRIRTRPPRLPRPRPRPHVGPRP | 0.0439
RRIRARPPRLPRPRPRPVWKPRP | 0.125
RRIRQRPPRLPRPRPRPACTPRP | -0.475
RRIRMRPPRLPRPRPRPKKIPRP | 0.599
RRIRNRPPRLPRPRPRPYHLPRP | 0.0195
RRIRVRPPRLPRPRPRPAQNPRP | 0.261
RRIRPRPPRLPRPRPRPFRCPRP | 0.12
RRIRLRPPRLPRPRPRPGAKPRP | -0.548
RRIRQRPPRLPRPRPRPCIQPRP | -0.118
RRIRLRPPRLPRPRPRPHFVPRP | -0.0621
RRIRARPPRLPRPRPRPNTTPRP | -0.164
RRIRHRPPRLPRPRPRPQAPPRP | -0.0401
RRIRLRPPRLPRPRPRPPNQPRP | 0.0881
RRIRFRPPRLPRPRPRPMIWPRP | -0.101
RRIRYRPPRLPRPRPRPNPSPRP | -0.0272
RRIRNRPPRLPRPRPRPLTPPRP | 0.136
RRIRTRPPRLPRPRPRPIKLPRP | -0.412

Sequence | shrunken log2 fold change
RRIRVRPPRLPRPRPRPDPGPRP | -0.321
RRIRLRPPRLPRPRPRPYAQPRP | -0.599
RRIRERPPRLPRPRPRPPHEPRP | 0.731
RRIRVRPPRLPRPRPRPLLWPRP | 0.145
RRIRRRPPRLPRPRPRPVRHPRP | 0.247
RRIRWRPPRLPRPRPRPYLMPRP | -0.319
RRIRHRPPRLPRPRPRPQTMPRP | 3.11
RRIRPRPPRLPRPRPRPMFGPRP | -0.253
RRIRGRPPRLPRPRPRPCIDPRP | 0.877
RRIRCRPPRLPRPRPRPDLEPRP | -0.26
RRIRWRPPRLPRPRPRPTDEPRP | 0.582
RRIRGRPPRLPRPRPRPNWMPRP | -0.194
RRIRTRPPRLPRPRPRPKSYPRP | -0.364
RRIRQRPPRLPRPRPRPDAMPRP | 0.0556
RRIRNRPPRLPRPRPRPSMLPRP | -0.145
RRIRARPPRLPRPRPRPNTMPRP | -0.223
RRIRMRPPRLPRPRPRPAGWPRP | 1.37
RRIRPRPPRLPRPRPRPMGGPRP | 0.113
RRIRYRPPRLPRPRPRPTQIPRP | -0.292
RRIRQRPPRLPRPRPRPFCGPRP | 0.0215

Sequence | shrunken log2 fold change
RRIRYRPPRLPRPRPRPCSCPRP | -0.155
RRIRPRPPRLPRPRPRPWMKPRP | -0.0651
RRIRIRPPRLPRPRPRPLNPPRP | -0.428
RRIRDRPPRLPRPRPRPNSLPRP | 0.0174
RRIRSRPPRLPRPRPRPKHWPRP | 0.311
RRIRGRPPRLPRPRPRPAPFPRP | 0.722
RRIRDRPPRLPRPRPRPTYWPRP | 0.01
RRIRWRPPRLPRPRPRPSFTPRP | -0.397
RRIRKRPPRLPRPRPRPGWEPRP | -0.00146
RRIRFRPPRLPRPRPRPHQEPRP | -0.0079
RRIRKRPPRLPRPRPRPHSSPRP | 0.0945
RRIRWRPPRLPRPRPRPAVQPRP | 0.792
RRIRCRPPRLPRPRPRPYGWPRP | -0.27
RRIRDRPPRLPRPRPRPSTFPRP | 0.11
RRIRGRPPRLPRPRPRPMDHPRP | -0.137
RRIRYRPPRLPRPRPRPWCGPRP | -0.974
RRIRNRPPRLPRPRPRPEKFPRP | -0.165
RRIRERPPRLPRPRPRPSRSPRP | 0.116
RRIRRRPPRLPRPRPRPNKQPRP | -0.00565
RRIRIRPPRLPRPRPRPKEPPRP | 0.0805
